Measured values as given in article PMC12377726 (Proceedings of the National Academy of Sciences of the …, 2025).
Numbering of substitutions follows the chain as printed.

B1: G001_gp1_V06_VRC01c_2021-0023 (antibody, V domains shown)
VH: QVQLVQSGAEVKKPGASVKVSCKASGYTFTDYYIHWVRQAPGQGLEWMGWINPNSGGTNYAQKFQDWVTMTRDTSITTAYMELSRLRSDDTAVYYCARGVRYSSSWYFGYWGQGTLVTVSS
VL: QSALTQPASVSGSPGQSITISCTGTSSDVGGYNYVSWYQQHPGKAPKLMIYDVSNRPSGVSNRFSGSKSGNTASLTISGLQTEDEADYYCSSYEVFGTGTKVTVL
B2: G001_gp1_V06_VRC01c_2021-0011 (antibody, V domains shown)
VH: QVQLVQSGAEVKKPGASVKVSCKASGYTFTGYYLHWVRQAPGQGLEWMGWINPNSGGTNYAQKFQGWVTMTRDTSISTAYMELSRLRSDDTAVYYCAVKDLDTMVRGGAFVFWGQGTMVTVSS
VL: DIQLTQSPSFLSASVGDRVTITCRASQGISSYLAWYQQKPGKAPKLLIYAASTLQSGVPSRFSGSGSGTEFTLTISSLQPEDFATYYCQQLNSFGGGTKVEIK
B3: G001_LD_V05_VRC01c_17 (antibody, V domains shown)
VH: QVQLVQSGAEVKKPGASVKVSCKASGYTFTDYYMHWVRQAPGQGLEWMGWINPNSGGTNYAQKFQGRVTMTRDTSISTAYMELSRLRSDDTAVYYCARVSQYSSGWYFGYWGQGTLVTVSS
VL: DIQMTQSPSSLSASVGDRVTITCQASQDISNYLNWYQQKPGKAPKLLIYDASNLETGVPSRFSGSGSGTDFTFTISSLQPEDIATYYCQQYEFFGGGTKVEIK
B4: G001_LD_V05_VRC01c_21 (antibody, V domains shown)
VH: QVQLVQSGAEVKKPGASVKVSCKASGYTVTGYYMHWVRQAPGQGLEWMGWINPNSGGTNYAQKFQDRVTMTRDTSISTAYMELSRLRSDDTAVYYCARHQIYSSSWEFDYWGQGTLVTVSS
VL: B3 VL with S77I, I83T, E92D, F93T, G96P, E101D
B5: G001_gp1_V06_VRC01c_2021-0006 (antibody, V domains shown)
VH: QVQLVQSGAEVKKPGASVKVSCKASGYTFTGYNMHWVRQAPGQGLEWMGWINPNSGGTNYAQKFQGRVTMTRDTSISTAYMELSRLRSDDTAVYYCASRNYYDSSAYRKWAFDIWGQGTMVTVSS
VL: B3 VL with S30N, F93T, G96Q, K99R, V100L
B6: G001_gp1_V06_VRC01c_2021-0020 (antibody, V domains shown)
VH: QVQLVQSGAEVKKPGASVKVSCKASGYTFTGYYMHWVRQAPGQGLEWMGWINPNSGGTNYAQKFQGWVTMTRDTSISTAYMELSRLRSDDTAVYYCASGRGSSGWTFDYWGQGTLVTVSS
VL: B3 VL with Y32F, Y36F, E92D, F93N, G96P, E101D
B7: G001_gp1_V06_VRC01c_2021-0004 (antibody, V domains shown)
VH: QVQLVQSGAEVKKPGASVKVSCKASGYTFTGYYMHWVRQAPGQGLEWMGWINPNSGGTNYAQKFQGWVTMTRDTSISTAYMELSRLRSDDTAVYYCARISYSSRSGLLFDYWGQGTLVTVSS
VL: B3 VL with E92N, F93T
B8: G001_gp1_V06_VRC01c_2021-0021 (antibody, V domains shown)
VH: QVQLVQSGAEVKKPGASVKVSCKASGYTFTGDYMHWVRQAPGQGLEWMGWINPNSGGTNYAQKFEGWVTMTRDTSISTAYMELSRLRSDDTAVYYCARTPYSSSWLFNYWGQGTLVTVSS
VL: B3 VL with Y32F, D70N, E92D, F93L, G96P, E101D
B9: G001_LD_V05_VRC01c_29 (antibody, V domains shown)
VH: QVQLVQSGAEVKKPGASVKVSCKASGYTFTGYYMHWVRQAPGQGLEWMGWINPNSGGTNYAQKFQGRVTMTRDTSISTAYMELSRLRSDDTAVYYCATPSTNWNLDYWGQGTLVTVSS
VL: B3 VL with T74S, E81D, F93G, G96P, E101D
B10: G001_LD_V05_VRC01c_30 (antibody, V domains shown)
VH: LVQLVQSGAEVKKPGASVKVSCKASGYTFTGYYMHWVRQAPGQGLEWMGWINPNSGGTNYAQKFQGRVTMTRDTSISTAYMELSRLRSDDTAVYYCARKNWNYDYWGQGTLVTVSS
VL: B3 VL with A13T, S30T, E92D, F93N
B11: G001_LD_V05_VRC01c_20 (antibody, V domains shown)
VH: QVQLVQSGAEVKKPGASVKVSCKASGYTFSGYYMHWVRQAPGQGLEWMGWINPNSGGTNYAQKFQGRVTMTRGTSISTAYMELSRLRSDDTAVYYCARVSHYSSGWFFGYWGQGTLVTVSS
VL: B3 VL with E92D
B12: G001_gp1_V06_VRC01c_2021-0008 (antibody, V domains shown)
VH: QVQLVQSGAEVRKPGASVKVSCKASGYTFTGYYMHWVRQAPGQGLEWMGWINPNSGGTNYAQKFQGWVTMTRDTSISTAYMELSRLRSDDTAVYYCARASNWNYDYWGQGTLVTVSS
VL: B3 VL with E55Q, E92D
B13: G001_gp1_V06_VRC01c_2021-0003 (antibody, V domains shown)
VH: QVQLVQSGAEVKKPGASVKVSCKASGYTFTGYYIHWVRQAPGQGLEWMGWINPNSGGTNYAQKFQGWVTMTRDTSISTAYMELRRLRSDDTAVYYCARVKDYYDSIGGWYFDLWGRGTLVTVSS
VL: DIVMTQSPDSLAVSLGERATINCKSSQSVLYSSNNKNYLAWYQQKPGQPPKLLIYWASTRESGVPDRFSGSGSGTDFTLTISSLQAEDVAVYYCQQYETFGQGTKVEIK
B14: G001_gp1_V06_VRC01c_2021-0007 (antibody, V domains shown)
VH: QVQLVQSGAEVKKPGASVKVSCKASGYTFTGSYMHWVRQAPGQGLEWMGWINPNSGGTNYAQKFQGWVTMTRDTSISTAYMELSRLRSDDTAVYYCATASSGSYYWYFDLWGRGTLVTVSS
VL: EIVMTQSPATLSVSPGERATLSCRASQSVSSNLAWYQQKPGQAPRLLIYGASTRATGIPARFSGSGSGTEFTLTISSLQSEDFAVYYCQQYETFGQGTKVEIK
B15: G001_gp1_V06_VRC01c_2021-0022 (antibody, V domains shown)
VH: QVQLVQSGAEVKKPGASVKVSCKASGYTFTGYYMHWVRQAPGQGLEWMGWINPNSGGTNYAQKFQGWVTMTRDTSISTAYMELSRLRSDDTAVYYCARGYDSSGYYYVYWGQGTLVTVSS
VL: B14 VL with E92N, T93N, K99R, V100L
B16: G001_gp1_V06_VRC01c_2021-0012 (antibody, V domains shown)
VH: not shown
VL: B14 VL with V29F, P40S, E92H, Q96P, E101D
B17: G001_gp1_V06_VRC01c_2021-0014 (antibody, V domains shown)
VH: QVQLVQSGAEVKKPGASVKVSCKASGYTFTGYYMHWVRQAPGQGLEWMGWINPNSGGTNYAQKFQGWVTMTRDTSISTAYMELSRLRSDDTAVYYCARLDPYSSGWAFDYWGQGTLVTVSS
VL: B14 VL with E92G
B18: G001_gp1_V06_VRC01c_2021-0005 (antibody, V domains shown)
VH: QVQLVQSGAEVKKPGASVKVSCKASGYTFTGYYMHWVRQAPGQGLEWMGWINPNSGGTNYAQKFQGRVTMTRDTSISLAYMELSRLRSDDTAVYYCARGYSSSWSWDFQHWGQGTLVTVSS
VL: DIQMTQSPSTLSASVGDRVTITCRASQSISSWLAWYQQKPGKAPKLLIYKASSLESGVPSRFSGSGSGTEFTLTISSLQPDDFATYYCQQYETFGQGTKVEIK
B19: G001_gp1_V06_VRC01c_2021-0015 (antibody, V domains shown)
VH: not shown
VL: B18 VL with Y91W
B20: G001_gp1_V06_VRC01c_2021-0018 (antibody, V domains shown)
VH: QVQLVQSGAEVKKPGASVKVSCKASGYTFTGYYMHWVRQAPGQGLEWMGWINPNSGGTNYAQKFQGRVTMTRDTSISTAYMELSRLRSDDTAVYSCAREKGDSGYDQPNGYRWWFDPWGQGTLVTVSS
VL: B18 VL
B21: G001_gp1_V06_VRC01c_2021-0010 (antibody, V domains shown)
VH: QVQLVQSGAEVKKPGASVKVSCKASGYTFTGYYMQWMRQAPGQGLEWMGWINPNSGGTNYAQKFQGWVTMTRDTSISTVYMELSRLRSDDTAVYYCARGFTNWNLDYWGQGTLVTVSS
VL: EIVLTQSPGTLSLSPGERATLSCRASQSVSSSYLAWYQQKPGQAPRLLIYGASSRATGIPDRFSGSGSGTDFTLTISRLEPEDFAMYYCQQYETFGQGTKVEIK
B22: G001_gp1_V06_VRC01c_2021-0016 (antibody, V domains shown)
VH: QVQLVQSGAEVKKPGASVTVSCKASGYTFTGYYMHWVRQAPGQGLEWMGWINPTSGGTNYGQKFQGRVTMTRDTSISTAYMELSRLRSDDTAVYYCAITTVTSTWAFDIWGQGTMVTVSS
VL: B21 VL with S31N, S32N, K40T, M86V
B23: G001_gp1_V06_VRC01c_2021-0017 (antibody, V domains shown)
VH: not shown
VL: B21 VL with M86V, T94F, Q97P, E102D
B24: G001_gp1_V06_VRC01c_2021-0019 (antibody, V domains shown)
VH: QVQLVQSGAEVKKPGASVKVSCKASGYTFTGYYMHWVRQAPGQGLEWMGWINPNSGGTNYAQKFQDWVTMTRDTSISTAYMELRRLRSDDTAVYYCARPSYRSGWDMWYWGQGTLVTVSS
VL: B21 VL with M86V, T94G, Q97P, E102D

target: eOD-GT8 (engineered outer domain germline-targeting version 8), monomer (HIV-1 gp120 engineered outer domain, …)

Does B1 bind?
Result: binds

Does B2 bind?
Result: binds

Does B3 bind?
Result: binds

Does B4 bind?
Result: binds

Does B5 bind?
Result: binds

Does B6 bind?
Result: binds

Does B7 bind?
Result: binds

Does B8 bind?
Result: binds

Does B9 bind?
Result: binds

Does B10 bind?
Result: binds

Does B11 bind?
Result: binds

Does B12 bind?
Result: binds

Does B13 bind?
Result: binds

Does B14 bind?
Result: binds

Does B15 bind?
Result: binds

Does B16 bind?
Result: binds

Does B17 bind?
Result: binds

Does B18 bind?
Result: binds

Does B19 bind?
Result: binds

Does B20 bind?
Result: binds

Does B21 bind?
Result: binds

Does B22 bind?
Result: binds

Does B23 bind?
Result: binds

Does B24 bind?
Result: binds
